From article PMC11658451, “The human Dicer helicase domain is capable of ATP hydrolysis and single-stranded nucleic acid binding” (BMC Biology, 2024)
Each block holds one molecule with its values, some of them ahead of it.

Columns and labels:
[1] = molecular target: T1, HEL (Homo sapiens, UniProt Q9UPY3); assay: ATP hydrolysis, PAGE of released […]; assay type: biochemical; details: labelled compound ([γ-32P]-ATP, 2 nM), HEL 2 nM (low turnover); 150 mM NaCl, 50 mM Tris-HCl pH 7.5, 2.5 mM MgCl2, 37 °C
T1 construct: gene DICER1; isolated helicase domain, residues 1-624, N-terminal His6 tag (pMCSG7), expressed in E. coli BL21Star, Ni-Sepharose purified
T1 sequence (Q9UPY3 1-624): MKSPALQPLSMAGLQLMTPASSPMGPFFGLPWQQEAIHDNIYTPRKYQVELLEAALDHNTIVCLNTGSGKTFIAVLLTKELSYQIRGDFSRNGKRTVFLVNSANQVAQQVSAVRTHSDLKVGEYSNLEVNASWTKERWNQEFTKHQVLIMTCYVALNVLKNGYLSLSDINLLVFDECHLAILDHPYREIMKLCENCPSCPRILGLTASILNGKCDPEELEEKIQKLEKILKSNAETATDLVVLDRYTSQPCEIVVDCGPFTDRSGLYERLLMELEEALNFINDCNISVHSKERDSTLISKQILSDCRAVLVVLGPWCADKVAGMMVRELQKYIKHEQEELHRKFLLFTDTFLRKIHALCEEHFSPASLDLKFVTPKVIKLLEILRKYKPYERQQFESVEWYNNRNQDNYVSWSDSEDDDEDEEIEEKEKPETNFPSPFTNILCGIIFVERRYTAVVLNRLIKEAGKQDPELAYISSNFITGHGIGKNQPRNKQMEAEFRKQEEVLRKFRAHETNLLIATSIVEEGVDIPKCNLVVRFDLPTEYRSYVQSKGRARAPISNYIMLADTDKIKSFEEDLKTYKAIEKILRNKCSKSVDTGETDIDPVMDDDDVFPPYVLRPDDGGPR

[2] = molecular target: T2, WT hDicer (Homo sapiens, UniProt Q9UPY3, K70A); assay: EMSA with radiolabelled ATP; details: labelled compound ([γ-32P]-ATP, 2 nM); 150 mM NaCl, 50 mM Tris-HCl pH 7.5, 2.5 mM MgCl2, 4 °C, no RNA; Walker A mutant; weak binding, Kd could not be determined
T2 construct: gene DICER1; full-length, 1922 aa, ~220 kDa; expressed in human 293T NoDice cells and purified; K70A variant from Addgene plasmid 41589
T2 sequence (Q9UPY3 whole entry K70A): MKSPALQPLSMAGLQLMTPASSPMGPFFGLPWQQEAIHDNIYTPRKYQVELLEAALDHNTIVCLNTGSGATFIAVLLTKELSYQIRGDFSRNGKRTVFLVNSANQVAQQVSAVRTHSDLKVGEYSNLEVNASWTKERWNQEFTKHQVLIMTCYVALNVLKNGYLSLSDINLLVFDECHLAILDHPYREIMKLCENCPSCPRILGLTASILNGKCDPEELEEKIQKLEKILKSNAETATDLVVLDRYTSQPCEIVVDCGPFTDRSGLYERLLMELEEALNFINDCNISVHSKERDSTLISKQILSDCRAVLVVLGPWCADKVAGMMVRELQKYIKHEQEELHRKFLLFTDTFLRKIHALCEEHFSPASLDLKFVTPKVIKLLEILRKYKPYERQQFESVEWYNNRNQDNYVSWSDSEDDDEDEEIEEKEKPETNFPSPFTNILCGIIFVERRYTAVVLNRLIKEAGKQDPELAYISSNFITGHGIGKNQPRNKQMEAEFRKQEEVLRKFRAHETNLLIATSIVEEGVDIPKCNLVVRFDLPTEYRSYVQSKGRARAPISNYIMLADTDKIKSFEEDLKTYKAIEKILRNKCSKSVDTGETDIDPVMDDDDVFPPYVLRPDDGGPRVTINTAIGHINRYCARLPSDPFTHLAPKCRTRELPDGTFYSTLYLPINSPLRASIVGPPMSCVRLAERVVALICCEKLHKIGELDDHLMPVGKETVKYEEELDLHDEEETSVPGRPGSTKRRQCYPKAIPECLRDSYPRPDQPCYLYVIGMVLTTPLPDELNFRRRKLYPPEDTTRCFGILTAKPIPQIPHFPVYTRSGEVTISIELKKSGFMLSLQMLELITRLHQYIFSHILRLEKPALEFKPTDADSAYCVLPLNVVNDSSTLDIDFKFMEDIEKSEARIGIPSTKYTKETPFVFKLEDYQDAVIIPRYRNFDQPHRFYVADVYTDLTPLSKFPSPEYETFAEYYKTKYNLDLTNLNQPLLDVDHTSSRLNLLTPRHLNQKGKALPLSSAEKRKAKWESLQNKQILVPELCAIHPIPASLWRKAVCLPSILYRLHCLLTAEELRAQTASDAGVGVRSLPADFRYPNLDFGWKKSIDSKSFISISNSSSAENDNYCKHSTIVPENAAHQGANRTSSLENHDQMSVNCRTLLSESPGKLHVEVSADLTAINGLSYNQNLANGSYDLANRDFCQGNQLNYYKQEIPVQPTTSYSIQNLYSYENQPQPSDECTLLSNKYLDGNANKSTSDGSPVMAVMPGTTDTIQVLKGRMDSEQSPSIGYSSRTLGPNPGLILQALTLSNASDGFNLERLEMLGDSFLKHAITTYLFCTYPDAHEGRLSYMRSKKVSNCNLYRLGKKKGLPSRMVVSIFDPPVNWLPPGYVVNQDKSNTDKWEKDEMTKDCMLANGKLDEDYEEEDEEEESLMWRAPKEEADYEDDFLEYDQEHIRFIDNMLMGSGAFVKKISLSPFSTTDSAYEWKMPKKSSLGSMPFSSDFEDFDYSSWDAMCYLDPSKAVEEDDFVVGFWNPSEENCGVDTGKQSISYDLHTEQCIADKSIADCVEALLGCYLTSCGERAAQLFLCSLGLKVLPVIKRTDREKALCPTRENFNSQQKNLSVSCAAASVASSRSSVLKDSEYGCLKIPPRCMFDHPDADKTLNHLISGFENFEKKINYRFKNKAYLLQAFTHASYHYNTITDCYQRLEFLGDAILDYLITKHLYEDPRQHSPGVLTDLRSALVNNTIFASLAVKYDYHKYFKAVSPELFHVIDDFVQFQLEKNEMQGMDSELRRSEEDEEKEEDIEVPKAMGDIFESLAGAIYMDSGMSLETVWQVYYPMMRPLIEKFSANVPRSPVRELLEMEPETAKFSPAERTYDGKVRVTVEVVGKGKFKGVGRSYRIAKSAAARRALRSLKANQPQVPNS

[3] = molecular target: T3, WT hDicer (Homo sapiens, UniProt Q9UPY3); assay: EMSA with radiolabelled ATP; assay type: binding
T3 construct: gene DICER1; full-length, 1922 aa, ~220 kDa; expressed in human 293T NoDice cells and purified; K70A variant from Addgene plasmid 41589

[4] = molecular target: T4, HEL (hDicer helicase domain) (Homo sapiens, UniProt Q9UPY3 1-624); assay: EMSA; up to 95 uM HEL; 50 mM Tris-HCl pH 7.5, 150 mM NaCl; EMSA 15 min at room temperature (also 4 and 37 C), 5% native PAA gel in 1x TBE at 4 C; BLI 23 C; details: protein: recombinant, tags: N-terminal His6 (pMCSG7)
T4 sequence: T1 sequence (Q9UPY3 1-624)

[5] = molecular target: T4, HEL (hDicer helicase domain); assay: CD thermal melting; HEL transitions shift to 52 and 74 C; RNA transition 75 to 60 C; 50 mM Tris-HCl pH 7.5, 150 mM NaCl; EMSA 15 min at room temperature (also 4 and 37 C), 5% native PAA gel in 1x TBE at 4 C; BLI 23 C; details: protein: recombinant; tags: N-terminal His6 (pMCSG7); label: 5' 32P (EMSA); none (BLI); partly self-paired (predicted)
[6] = molecular target: T4, HEL (hDicer helicase domain); assay: EMSA; 50 mM Tris-HCl pH 7.5, 150 mM NaCl; EMSA 15 min at room temperature (also 4 and 37 C), 5% native PAA gel in 1x TBE at 4 C; BLI 23 C; details: protein: recombinant; tags: N-terminal His6 (pMCSG7); label: 5' 32P (EMSA); none (BLI)
[7] = molecular target: T4, HEL (hDicer helicase domain); assay: BLI; 23 C, HEL immobilized; 50 mM Tris-HCl pH 7.5, 150 mM NaCl; EMSA 15 min at room temperature (also 4 and 37 C), 5% native PAA gel in 1x TBE at 4 C; BLI 23 C; details: protein: recombinant; tags: N-terminal His6 (pMCSG7); label: 5' 32P (EMSA); none (BLI)
[8] = molecular target: T4, HEL (hDicer helicase domain); assay: SAXS; 1:1 complex; 50 mM Tris-HCl pH 7.5, 150 mM NaCl; EMSA 15 min at room temperature (also 4 and 37 C), 5% native PAA gel in 1x TBE at 4 C; BLI 23 C; details: protein: recombinant, tags: N-terminal His6 (pMCSG7), label: 5' 32P (EMSA), hairpin
[9] = molecular target: T4, HEL (hDicer helicase domain); assay: EMSA; distinct complex; 50 mM Tris-HCl pH 7.5, 150 mM NaCl; EMSA 15 min at room temperature (also 4 and 37 C), 5% native PAA gel in 1x TBE at 4 C; BLI 23 C; details: protein: recombinant; tags: N-terminal His6 (pMCSG7); label: 5' 32P (EMSA); none (BLI)
[10] = molecular target: T4, HEL (hDicer helicase domain); assay: EMSA; room temperature; 50 mM Tris-HCl pH 7.5, 150 mM NaCl; EMSA 15 min at room temperature (also 4 and 37 C), 5% native PAA gel in 1x TBE at 4 C; BLI 23 C; details: protein: recombinant; tags: N-terminal His6 (pMCSG7); label: 5' 32P; unstructured
[11] = molecular target: T4, HEL (hDicer helicase domain); assay: EMSA; 37 C; 50 mM Tris-HCl pH 7.5, 150 mM NaCl; EMSA 15 min at room temperature (also 4 and 37 C), 5% native PAA gel in 1x TBE at 4 C; BLI 23 C; details: protein: recombinant; tags: N-terminal His6 (pMCSG7); label: 5' 32P; unstructured
[12] = label: 5' 32P on one strand, blunt
[13] = label: 5' 32P on one strand, 3' overhang 2 nt on each end

Kd [3]: ~0.085 µM
Molecule: Nc1ncnc2c1ncn2[C@@H]1O[C@H](COP(=O)(O)OP(=O)(O)OP(=O)(O)O)[C@@H](O)[C@H]1O [ATP]
ATP hydrolysis, PAGE of released 32Pi [1]: ATP was hydrolyzed in reactions carried out with HEL (Fig. 2a) and WT hDicer | EMSA with radiolabelled ATP [2]: only weak ATP binding could be observed for hDicer_K70A

B1: R12 (ssRNA)
RNA: GAAUCUUAACGC
binding result ([4]; label: 5' 32P): no binding

B2: R42 (ssRNA)
RNA: GGGAGAAUCAUAAGUAGCCUCCCCCCAUGUUAACAGUUAGCC
binding result [5]: binds

B3: dsRNA_blunt (dsRNA)
RNA 1: GUGCAUUGUAGUUGCAUUGCAUGUUCUGGUCA
RNA 2: UGACCAGAACAUGCAAUGCAACUACAAUGCAC
binding result [4, 12]: no binding

B4: dsRNA_over (dsRNA)
RNA 1: B3 RNA 1
RNA 2: ACCAGAACAUGCAAUGCAACUACAAUGCACAU
binding result [4, 13]: no binding

B5: D42 (ssDNA)
DNA: GGGAGAATCATAAGTAGCCTCCCCCCATGTTAACAGTTAGCC
Kd [6]: ~8.5 µM | Kd [7]: ~22 µM

B6: R56 (ssRNA)
RNA: GGGAGAAUCAUAAGUAGCGCAGUGAGUCGUUGUGCUGCCCAUGUUAACAGUUAGCC
Kd [7]: ~23 µM

B7: pre-mir-16-1 (structured_RNA)
RNA: UAGCAGCACGUAAAUAUUGGCGUUAAGAUUCUAAAAUUAUCUCCAGUAUUAACUGUGCUGCUGAA
binding result ([8]; 9-nt apical loop): binds

B8: pre-mir-21 (structured_RNA)
RNA: AGCUUAUCAGACUGAUGUUGACUGUUGAAUCUCAUGGCAACACCAGUCGAUGGGCUGU
binding result [8]: binds

B9: D32 (ssDNA)
DNA: GTGCATTGTAGTTGCATTGCATGTTCTGGTCA
binding result [9]: binds

B10: dsDNA_blunt (dsDNA)
DNA 1: B9 DNA
DNA 2: TGACCAGAACATGCAATGCAACTACAATGCAC
binding result [4, 12]: no binding

B11: dsDNA_over (dsDNA)
DNA 1: B9 DNA
DNA 2: ACCAGAACATGCAATGCAACTACAATGCACAT
binding result [4, 13]: no binding

B12: (AC)21 (ssRNA)
RNA: ACACACACACACACACACACACACACACACACACACACACAC
binding result [10]: binds

B13: (CU)21 (ssRNA)
RNA: CUCUCUCUCUCUCUCUCUCUCUCUCUCUCUCUCUCUCUCUCU
binding result [11]: binds

B14: D56 (ssDNA)
DNA: GGGAGAATCATAAGTAGCGCAGTGAGTCGTTGTGCTGCCCATGTTAACAGTTAGCC
Kd [6]: ~7.4 µM | Kd [7]: ~21 µM

B15: D12 (ssDNA)
DNA: GAATCTTAACGC
binding result ([4]; label: 5' 32P): no binding
